Assay results from US20200338203A1 (Bicycle, published 2020).
Read-outs that look alike come from different tables or passages of the source. Values belong to the binder of their own block, whether it stands above or below them. Numbered stars: 1 amine (or outer) side, 2 acyl side, 3 side chain; on linkers, the order of the positions; unused ones are H or OH. Bridge positions count the residues as written; N and C are the ends. Square brackets hold non-standard residues; d marks the D form. Primed or numbered codes have the meaning given here. Ends that are not written are not given here. AlexaFluor488 = AlexaFluor488 fluorescent dye label; K(Fl)″ = lysine labelled with carboxyfluorescein; K(Fl) = Lys carrying 5(6)-carboxyfluorescein; 1Nal = N[C@@H](Cc1cccc2ccccc12)C(=O)O; TBMB = c1c(C[*:1])cc(C[*:3])cc1C[*:2]; Gly(cPent) = N[C@H](C(=O)O)C1CCCC1; hArg = N=C(N)NCCCC[C@H](N)C(=O)O; Tle = CC(C)(C)[C@H](N)C(=O)O; AF488 = AlexaFluor488 label; Aib = CC(C)(N)C(=O)O; βAla = NCCC(=O)O; Sar = CNCC(=O)O

Experiments:
mouse EphA2 = molecular target: T1, mouse EphA2 (Mouse, UniProt Q03145 26-538); test: FP direct binding, selectivity
T1 construct: extracellular domain; C-terminal polyHis; also called EphA2 (Ecto), Mouse
T1 sequence (Q03145 26-538): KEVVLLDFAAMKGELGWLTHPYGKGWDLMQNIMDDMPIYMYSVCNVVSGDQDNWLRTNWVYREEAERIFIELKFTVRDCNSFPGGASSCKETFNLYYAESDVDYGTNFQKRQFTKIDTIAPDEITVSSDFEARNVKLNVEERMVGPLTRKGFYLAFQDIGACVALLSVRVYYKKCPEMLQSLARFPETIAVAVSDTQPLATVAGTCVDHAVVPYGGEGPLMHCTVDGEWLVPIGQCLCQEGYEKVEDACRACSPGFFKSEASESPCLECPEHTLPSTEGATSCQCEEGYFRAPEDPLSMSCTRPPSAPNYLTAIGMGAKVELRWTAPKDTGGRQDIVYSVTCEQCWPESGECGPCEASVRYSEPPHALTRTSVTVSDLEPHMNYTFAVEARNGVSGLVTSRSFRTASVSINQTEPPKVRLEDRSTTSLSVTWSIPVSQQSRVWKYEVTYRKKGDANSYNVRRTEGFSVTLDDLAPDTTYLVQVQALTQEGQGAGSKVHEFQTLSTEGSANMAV
Method: (§1) The gain used for analysis was determined for each tracer at the end of the 60 minutes where there was no protein in the well. Data was analysed using Systat Sigmaplot version 12.0. mP values were fit to a user defined quadratic equation to generate a Kd value: f=ymin+(ymax−ymin)/Lig*((x+Lig+Kd)/2-sqrt((((x+Lig+Kd)/2)\hat{ }2)−(Lig*x))). “Lig” was a defined value of the concentration of tracer used.

rat EphA2 = rat EphA2 (Rat, UniProt D3ZBN3 27-205); test: FP direct binding, selectivity
Method: as §1

dog EphA2 = dog EphA2 (Dog, UniProt A0A286R219 28-206); test: FP direct binding, selectivity
Method: as §1

rat EphB1 = molecular target: T2, rat EphB1 (Rat, UniProt P09759 18-540); test: FP direct binding, selectivity
T2 construct: extracellular domain; also called EphB1 (Ecto), Rat
T2 sequence (looked up): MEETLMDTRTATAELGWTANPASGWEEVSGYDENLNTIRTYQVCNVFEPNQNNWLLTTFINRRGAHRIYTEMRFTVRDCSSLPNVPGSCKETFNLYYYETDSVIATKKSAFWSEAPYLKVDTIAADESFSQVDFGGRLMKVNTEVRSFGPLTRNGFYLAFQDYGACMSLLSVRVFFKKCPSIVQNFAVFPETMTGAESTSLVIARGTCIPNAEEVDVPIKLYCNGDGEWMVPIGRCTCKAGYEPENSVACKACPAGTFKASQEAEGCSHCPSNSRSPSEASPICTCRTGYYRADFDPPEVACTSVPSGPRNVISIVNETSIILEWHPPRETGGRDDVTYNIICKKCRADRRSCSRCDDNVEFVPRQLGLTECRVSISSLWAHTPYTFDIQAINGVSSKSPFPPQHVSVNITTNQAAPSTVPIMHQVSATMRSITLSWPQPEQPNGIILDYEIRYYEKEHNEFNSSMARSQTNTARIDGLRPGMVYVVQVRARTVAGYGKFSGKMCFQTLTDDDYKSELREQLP
Method: as §1

Human EphA2 (Ecto) [1] = molecular target: T3, Human EphA2 (Ecto) (Human, UniProt P29317 24-537); test: FP direct binding
T3 construct: extracellular domain
T3 sequence (P29317 24-537): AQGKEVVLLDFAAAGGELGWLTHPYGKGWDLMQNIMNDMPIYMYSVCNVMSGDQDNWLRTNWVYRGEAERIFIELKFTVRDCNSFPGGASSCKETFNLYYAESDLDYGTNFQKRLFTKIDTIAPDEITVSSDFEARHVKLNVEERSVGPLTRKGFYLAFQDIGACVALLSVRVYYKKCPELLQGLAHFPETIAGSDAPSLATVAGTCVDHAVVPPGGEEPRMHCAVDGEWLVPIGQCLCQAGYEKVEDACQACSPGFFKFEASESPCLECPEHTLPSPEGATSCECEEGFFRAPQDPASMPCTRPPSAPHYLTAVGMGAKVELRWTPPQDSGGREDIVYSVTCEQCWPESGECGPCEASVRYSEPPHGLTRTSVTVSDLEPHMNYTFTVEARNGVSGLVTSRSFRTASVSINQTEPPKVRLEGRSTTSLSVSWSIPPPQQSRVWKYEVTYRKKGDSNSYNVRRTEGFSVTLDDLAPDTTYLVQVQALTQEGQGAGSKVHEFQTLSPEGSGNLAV

Mouse EphA2 (Ecto) [2] = molecular target: T4, Mouse EphA2 (Ecto) (Mouse, UniProt Q03145 26-538); test: FP direct binding
T4 construct: extracellular domain; not shown: Fc fusion or C-terminal polyHis
T4 sequence (Q03145 26-538): as the sequence (Q03145 26-538) above

[3] = molecular target: Human & mouse EphA3 (Human & mouse) (UniProt P29320); test: FP direct binding, selectivity
Chain of Human & mouse EphA3 (Human & mouse) (P29320 21-541): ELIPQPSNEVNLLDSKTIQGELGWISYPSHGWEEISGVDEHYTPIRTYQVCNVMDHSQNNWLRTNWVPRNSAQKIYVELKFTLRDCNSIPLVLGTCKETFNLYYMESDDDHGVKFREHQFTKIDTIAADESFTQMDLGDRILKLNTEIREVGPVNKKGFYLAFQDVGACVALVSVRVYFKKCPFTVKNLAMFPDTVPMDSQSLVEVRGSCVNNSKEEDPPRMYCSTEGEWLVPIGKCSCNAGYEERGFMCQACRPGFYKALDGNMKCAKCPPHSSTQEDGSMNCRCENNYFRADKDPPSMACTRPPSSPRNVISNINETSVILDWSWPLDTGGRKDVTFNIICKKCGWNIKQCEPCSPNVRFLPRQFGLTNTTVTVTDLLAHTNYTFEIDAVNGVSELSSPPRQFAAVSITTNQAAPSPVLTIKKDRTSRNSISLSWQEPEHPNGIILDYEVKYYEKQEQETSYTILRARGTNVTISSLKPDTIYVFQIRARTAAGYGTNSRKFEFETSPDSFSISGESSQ

dog EphA2 (Dog) = test: FP direct binding, selectivity
Human EphA1 = molecular target: T5, Human EphA1 (Human, UniProt P21709 26-547); test: FP direct binding, selectivity
T5 construct: extracellular domain; also called EphA1 (Ecto), Human
T5 sequence (looked up): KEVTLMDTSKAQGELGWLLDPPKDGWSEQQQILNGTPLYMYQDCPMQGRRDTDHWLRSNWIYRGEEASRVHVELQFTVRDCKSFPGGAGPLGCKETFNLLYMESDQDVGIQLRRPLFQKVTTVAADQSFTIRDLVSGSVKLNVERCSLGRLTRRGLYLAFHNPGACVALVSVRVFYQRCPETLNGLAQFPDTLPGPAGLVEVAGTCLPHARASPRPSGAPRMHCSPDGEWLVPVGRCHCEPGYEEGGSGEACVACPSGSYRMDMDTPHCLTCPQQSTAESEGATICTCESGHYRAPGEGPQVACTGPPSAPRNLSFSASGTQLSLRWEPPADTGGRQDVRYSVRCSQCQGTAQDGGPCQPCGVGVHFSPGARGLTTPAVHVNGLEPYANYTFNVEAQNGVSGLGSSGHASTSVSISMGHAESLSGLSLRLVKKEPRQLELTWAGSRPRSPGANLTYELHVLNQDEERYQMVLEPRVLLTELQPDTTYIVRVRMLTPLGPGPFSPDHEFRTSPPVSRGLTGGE
Method: as §1

human EphA4 (Human) = human EphA4 (Human) (UniProt P54764); test: FP direct binding, selectivity
Chain of human EphA4 (Human) (P54764 20-547): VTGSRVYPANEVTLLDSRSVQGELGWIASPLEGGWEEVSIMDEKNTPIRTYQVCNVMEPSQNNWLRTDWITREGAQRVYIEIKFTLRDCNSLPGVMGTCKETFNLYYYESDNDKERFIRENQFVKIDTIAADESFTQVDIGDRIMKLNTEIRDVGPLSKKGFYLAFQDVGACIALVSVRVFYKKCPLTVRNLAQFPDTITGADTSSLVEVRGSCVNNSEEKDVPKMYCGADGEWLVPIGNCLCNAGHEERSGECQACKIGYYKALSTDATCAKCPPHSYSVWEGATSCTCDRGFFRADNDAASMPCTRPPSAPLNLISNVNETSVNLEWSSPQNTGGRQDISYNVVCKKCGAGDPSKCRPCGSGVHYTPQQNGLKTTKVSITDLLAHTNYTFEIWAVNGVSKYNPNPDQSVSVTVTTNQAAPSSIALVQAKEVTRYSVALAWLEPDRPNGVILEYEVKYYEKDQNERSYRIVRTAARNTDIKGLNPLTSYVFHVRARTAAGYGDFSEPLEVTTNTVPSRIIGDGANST

[4] = molecular target: rat & mouse EphA4 (rat & mouse) (UniProt D3ZZK3); test: FP direct binding, selectivity
rat EphA3 (Rat) = rat EphA3 (Rat) (UniProt O08680); test: FP direct binding, selectivity
Chain of rat EphA3 (Rat) (O08680 21-541): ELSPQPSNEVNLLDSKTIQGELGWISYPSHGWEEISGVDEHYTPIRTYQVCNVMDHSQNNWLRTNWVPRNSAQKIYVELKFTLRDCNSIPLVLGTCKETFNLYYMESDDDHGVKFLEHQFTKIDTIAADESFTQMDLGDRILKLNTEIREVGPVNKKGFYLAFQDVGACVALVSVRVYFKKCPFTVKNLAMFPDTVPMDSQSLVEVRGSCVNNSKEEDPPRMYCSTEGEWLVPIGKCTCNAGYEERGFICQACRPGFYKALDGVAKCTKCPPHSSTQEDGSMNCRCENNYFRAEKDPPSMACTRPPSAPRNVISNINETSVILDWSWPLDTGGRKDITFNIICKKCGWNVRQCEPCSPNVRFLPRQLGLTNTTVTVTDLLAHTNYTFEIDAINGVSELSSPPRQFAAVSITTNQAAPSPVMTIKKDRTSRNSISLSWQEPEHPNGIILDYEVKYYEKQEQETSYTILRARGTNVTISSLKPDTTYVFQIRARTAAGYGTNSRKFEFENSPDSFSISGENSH

Human EphA2 [5] = molecular target: T6, Human EphA2 (Human, UniProt P29317 24-537); test: FP competition; competitor: fluorescent Compound 18
T6 construct: extracellular domain; also called EphA2 (Ecto), Human
T6 sequence (P29317 24-537): as the sequence (P29317 24-537) above
Method: (§2) Peptides without a fluorescent tag were tested in competition with a peptide with a fluorescent tag and a known Kd (Table 2). Peptides were diluted to an appropriate concentration in assay buffer as described in the direct binding assay with a maximum of 5% DMSO, then serially diluted 1 in 2. Five μL of diluted peptide was added to the plate followed by 10 μL of human or mouse EphA2 (Table 1) at a fixed concentration which was dependent on the fluorescent peptide used (Table 2), then 10 μL fluorescent peptide added. Measurements were conducted as for the direct binding assay, however the gain was determined prior to the first measurement.

Human EphA2 [6] = molecular target: T6, Human EphA2; test: FP competition; competitor: fluorescent Compound 66
Method: as §2

Human EphA2 (Ecto) [7] = molecular target: T3, Human EphA2 (Ecto); test: FP competition; competitor Compound 18
Mouse EphA2 (Ecto) [8] = molecular target: T4, Mouse EphA2 (Ecto); test: FP competition; competitor Compound 18
Human EphA2 (Ecto) [9] = molecular target: T3, Human EphA2 (Ecto); test: FP competition; competitor Compound 18; remark: listed apart in the source

Kd (Human EphA2 (Ecto) [1]): 1.04 nM
Kd (Mouse EphA2 (Ecto) [2]): 2.56 nM
Kd [3]: 166 nM
Kd (dog EphA2 (Dog)): 4.39 nM
Kd (Human EphA1): 1710 nM
Kd (mouse EphA2): 2.56 nM
Kd (rat EphA2): 1.25 nM
Kd (rat EphB1): 1440 nM
Binder: {AF488-βAla}-[Sar][Sar][Sar][Sar][Sar][Sar][Sar][Sar][Sar][Sar]H[dD]VPCP[1Nal]G[Aib]F[1Nal]CP[Tle]NR[Aib]GC (linker 15-22-29 via TBMB) [Compound 144]

Ki (Human EphA2 [5]): 293 nM
Ki (Human EphA2 [6]): 265 nM
Binder: ACPWGPFWCPVARPGC (N-terminal Sar2 before the entry; three Cys cyclised on TBMB, bicyclic peptide) [Compound 101]

Ki (Human EphA2 [5]): 124 nM
Ki (Human EphA2 [6]): 194 nM
Binder: [Sar][Sar]ACPWGPFWCPVNRAGC (linker 4-11-18 via TBMB, bicyclic peptide) [Compound 104]

Kd (mouse EphA2): 0.8 nM
Kd (rat EphA2): 0.36 nM
Kd (dog EphA2): 2.17 nM
Binder: {AF488-βAla}-[Sar][Sar][Sar][Sar][Sar][Sar][Sar][Sar][Sar][Sar]H[dD]VPCPWGPFWCPVNRPGCA (linker 15-22-29 via TBMB, bicyclic peptide, fluorescent) [Compound 139]

Kd (Human EphA1): 1180 nM
Kd (rat EphB1): 2270 nM
Binder: ACPWGPFWCPVNRPGCA (N-terminal Fl-G-Sar5 before the entry; three Cys cyclised on TBMB, bicyclic peptide, fluorescent) [Compound 66]

Ki (Human EphA2 [5]): 677 nM
Ki (Human EphA2 [6]): 471 nM
Binder: [Sar][Sar]ACPWGPFWCPVNR[dA]GC (linker 4-11-18 via TBMB, bicyclic peptide) [Compound 105]

Ki (Human EphA2 [5]): 89 nM
Ki (Human EphA2 [6]): 110 nM
Binder: [Sar][Sar]ACPWGPFWCPVNRP[dA]C (linker 4-11-18 via TBMB, bicyclic peptide) [Compound 112]

Kd (Human EphA2 (Ecto) [1]): 2.19 nM
Kd [3]: 7190 nM
Binder: {AF488-βAla}-[Sar][Sar][Sar][Sar][Sar][Sar][Sar][Sar][Sar][Sar]H[dD][Gly(cPent)]PC[Aib][1Nal]G[Aib]F[1Nal]CP[Tle]NR[Aib][dD]C (linker 15-22-29 via TBMB) [Compound 146]

Kd (Human EphA1): 1640 nM
Binder: ACMNDWLCSLGWTCA[Sar][Sar][Sar][Sar][Sar][Sar]-{K(Fl)} (linker 2-8-14 via TBMB) [Compound 1]

Ki (Human EphA2 (Ecto) [7]): 1 nM
Ki (Mouse EphA2 (Ecto) [8]): 2.08 nM
Binder: Ac-[Sar][Sar]H[dD]VPCPWGPFWCPVNRPGC (linker 7-14-21 via TBMB) [Compound 225]

Kd (mouse EphA2): 386 nM
Binder: ACLVNDDCFYMGLCA[Sar][Sar][Sar][Sar][Sar][Sar]-{K(Fl)″} (linker 2-8-14 via TBMB, bicyclic peptide, fluorescent) [Compound 23]

Ki (Human EphA2 [6]): 1500 nM
Binder: [Sar][Sar]ACPWG[dA]FWCPVNRPGC (linker 4-11-18 via TBMB, bicyclic peptide) [Compound 297]

Ki (Human EphA2 (Ecto) [9]): 0.71 nM
Ki (Mouse EphA2 (Ecto) [8]): 0.72 nM
Binder: Ac-[Sar][Sar]H[dD]VPCP[1Nal]G[Aib]F[1Nal]CP[Tle]NR[Aib]GC (linker 7-14-21 via TBMB) [Compound 262]

Second part, the binder before the results:

Binder: ADVTCPWGPFWCPVNRPGCA (N-terminal Fl-G-Sar5 before the entry; three Cys cyclised on TBMB, bicyclic peptide, fluorescent) [Compound 18]
Kd (mouse EphA2): 4.02 nM
Kd (rat EphA2): 1.72 nM
Kd (dog EphA2): 3.57 nM
Kd (rat EphB1): 1420 nM

Binder: {AF488-βAla}-[Sar][Sar][Sar][Sar][Sar][Sar][Sar][Sar][Sar][Sar]H[dD]VPC[Aib][1Nal]G[Aib]F[1Nal]CP[Tle]N[hArg]P[dD]C (linker 15-22-29 via TBMB) [Compound 140]
Kd (Human EphA2 (Ecto) [1]): 2.05 nM
Kd (Mouse EphA2 (Ecto) [2]): 4.55 nM
Kd [3]: 3690 nM
Kd (dog EphA2 (Dog)): 8.7 nM
Kd (mouse EphA2): 4.55 nM
Kd (rat EphA2): 1.57 nM

Binder: {AF488-βAla}-[Sar][Sar][Sar][Sar][Sar][Sar][Sar][Sar][Sar][Sar]H[dD]VPC[Aib][1Nal]G[Aib]F[1Nal]CP[Tle]NR[Aib][dD]C (linker 15-22-29 via TBMB) [Compound 141]
Kd (Human EphA2 (Ecto) [1]): 2.65 nM
Kd (Mouse EphA2 (Ecto) [2]): 6.5 nM
Kd (dog EphA2 (Dog)): 13.3 nM
Kd (human EphA4 (Human)): 238000 nM
Kd [4]: 1890 nM
Kd (rat EphA3 (Rat)): 137 nM
Kd (mouse EphA2): 6.5 nM
Kd (rat EphA2): 2.33 nM

Binder: [Sar][Sar]ACPWGPAWCPVNRPGC (linker 4-11-18 via TBMB, bicyclic peptide) [Compound 83]
Ki (Human EphA2 [5]): 199 nM
Ki (Human EphA2 [6]): 288 nM

Binder: [Sar][Sar]ACPWGPFWCPVNRPAC (linker 4-11-18 via TBMB, bicyclic peptide) [Compound 111]
Ki (Human EphA2 [5]): 108 nM
Ki (Human EphA2 [6]): 238 nM

Binder: [Sar][Sar]ACPWGAFWCPVNRPGC (linker 4-11-18 via TBMB, bicyclic peptide) [Compound 289]
Ki (Human EphA2 [5]): > 1000 nM
Ki (Human EphA2 [6]): 1100 nM

B1: Compound 12 (peptide)
peptide: ACPWGPAWCPVNRPGCA
modifications: N-terminal Fl-G-Sar5 before the entry (5(6)-carboxyfluorescein, Gly, five sarcosines); three Cys cyclised on TBMB
notes: bicyclic peptide, fluorescent
Kd (mouse EphA2): 55.5 nM

Binder: {AlexaFluor488-βAla}-[Sar][Sar][Sar][Sar][Sar][Sar][Sar][Sar][Sar][Sar]ACPWGPFWCPVNRPGC (linker 12-19-26 via TBMB, bicyclic peptide, fluorescent) [Compound 68]
Kd (rat EphA2): 15.9 nM
Kd (dog EphA2): 31.9 nM

Binder: Ac-[Sar][Sar]A[dD]VTCPWGPFWCPVNRPGC (linker 7-14-21 via TBMB) [Compound 158]
Ki (Human EphA2 (Ecto) [7]): 2.05 nM
Ki (Mouse EphA2 (Ecto) [8]): 2.2 nM

Binder: Ac-[Sar][Sar]A[dD][Gly(cPent)]VTCPWGPFWCPVNRPGC (linker 8-15-22 via TBMB) [Compound 163]
Ki (Human EphA2 (Ecto) [7]): 1.33 nM
Ki (Mouse EphA2 (Ecto) [8]): 1.74 nM

Binder: [Sar][Sar]ACPWGPFWCPVN[dA]PGC (linker 4-11-18 via TBMB, bicyclic peptide) [Compound 302]
Ki (Human EphA2 [5]): > 1000 nM
Ki (Human EphA2 [6]): 1410 nM

Binder: ACPWGPFWCPVNRPGC (N-terminal AlexaFluor488-G-Sar5 before the entry; three Cys cyclised on TBMB, bicyclic peptide, fluorescent) [Compound 67]
Kd (rat EphA2): 26.5 nM
Kd (dog EphA2): 61.4 nM
